Assay results: patent publication EP4538285A1 (Chineo Medical Technology Co., Ltd., dated 2025)

B1: Toripalimab (antibody, V domains shown)
VH: QGQLVQSGAEVKKPGASVKVSCKASGYTFTDYEMHWVRQAPIHGLEWIGVIESETGGTAYNQKFKGRVTITADKSTSTAYMELSSLRSEDTAVYYCAREGITTVATTYYWYFDVWGQGTTVTVSS
VL: DVVMTQSPLSLPVTLGQPASISCRSSQSIVHSNGNTYLEWYLQKPGQSPQLLIYKVSNRFSGVPDRFSGSGSGTDFTLKISRVEAEDVGVYYCFQGSHVPLTFGQGTKLEIKR

Experiments:
[1] = target: T1, Seq No.1-RFc (wild-type PD-1 fused to rabbit IgG Fc) (human; rabbit, UniProt Q15116 21-155); assay: SPR, Biacore T200; PD1-RFc mobile phase, antibody stationary phase
T1 construct: also called PD1-RFc; not shown: rabbit IgG Fc (RFc) of vector pcDNA3.4-RFc

Tilelizumab = target: T2, Tilelizumab; assay: as above
T2 construct: Biotin-labelled in flow cytometry; also called Tevimbra; Tislelizumab

Toripalimab = target: B1; assay: SPR, Biacore T200

Binder	Kd [1] [nM]	koff [1] [s⁻¹]	kon [1] [M⁻¹ s⁻¹]	Kd (Tilelizumab) [nM]	koff (Tilelizumab) [s⁻¹]	kon (Tilelizumab) [M⁻¹ s⁻¹]	Kd (Toripalimab) [nM]
Camrelizumab (antibody, V domains shown) VH: EVQLVESGGGLVQPGGSLRLSCAASGFTFSSYMMSWVRQAPGKGLEWVATISGGGANTYYPDSVKGRFTISRDNAKNSLYLQMNSLRAEDTAVYYCARQLYYFDYWGQGTTVTVSS VL: DIQMTQSPSSLSASVGDRVTITCLASQTIGTWLTWYQQKPGKAPKLLIYTATSLADGVPSRFSGSGSGTDFTLTISSLQPEDFATYYCQQVYSIPWTFGGGTKVEIK	0.229	0.000389	1.7e+06	–	–	–	–
Seq No.3-RFc (PD-1 variant SEQ ID NO: 3 fused to rabbit IgG Fc) (Fc fusion, Signal peptide 1-20 left out; also called variant 2; not shown: rabbit IgG Fc (RFc) of vector pcDNA3.4-RFc) PGWFLDSPDRPWNPPTFSPALLVVTEGDNATFTCSFSNTSESFVLNWYRMSPSNQTDKLAAFPFLFNLPGQDCRFRVTQLPNGRDFHMSVVRARRNDSGTYLCGAISLSTPVWIKESLRAELRVTERRAEVPTAH	–	–	–	1.78	0.00105	588000	–
Seq No.2-RFc (PD-1 variant SEQ ID NO: 2 fused to rabbit IgG Fc) (Fc fusion, signal peptide 1-20 left out; also called variant 1; not shown: rabbit IgG Fc (RFc) of vector pcDNA3.4-RFc) PGWFLDSPDRPWNPPTFSPALLVVTEGDNATFTCSFSNTSESFVLNWYRMSPSNQTDKLAAFPEDRSQPGQDCRFRVTQLPNGRDFHMSVVRARRNDSGTYLCGAISLSTPVWIKESLRAELRVTERRAEVPTAH	–	–	–	0.085	0.000174	2.05e+06	0.395
Seq No.6-RFc (PD-1 variant SEQ ID NO: 6 fused to rabbit IgG Fc) (Fc fusion, Signal peptide 1-20 left out; also called variant 5; 56#-16; not shown: rabbit IgG Fc (RFc) of vector pcDNA3.4-RFc) PGWFLDSPDRPWNPPTFSPALLVVTEGDNATFTCSFSNTSESFVLNWYRMSPSNQTDKLAAFPEDFFTVSQDCRFRVTQLPNGRDFHMSVVRARRNDSGTYLCGAISLSTPVWIKESLRAELRVTERRAEVPTAH	–	–	–	0.315	0.000836	2.66e+06	–
Sintilimab (antibody, V domains shown) VH: QVQLVQSGAEVKKPGSSVKVSCKASGGTFSSYAISWVRQAPGQGLEWMGLIIPMFDTAGYAQKFQGRVAITVDESTSTAYMELSSLRSEDTAVYYCARAEHSSTGTFDYWGQGTLVTVSS VL: DIQMTQSPSSVSASVGDRVTITCRASQGISSWLAWYQQKPGKAPKLLISAASSLQSGVPSRFSGSGSGTDFTLTISSLQPEDFATYYCQQANHLPFTFGGGTKVEIK	0.00141	5.11e-06	3.62e+06	–	–	–	–
B1	0.178	0.00115	6.47e+06	–	–	–	–
Seq No.7-RFc (PD-1 variant SEQ ID NO: 7 fused to rabbit IgG Fc) (Fc fusion, Signal peptide 1-20 left out; also called variant 6; not shown: rabbit IgG Fc (RFc) of vector pcDNA3.4-RFc) PGWFLDSPDRPWNPPTFSPALLVVTEGDNATFTCSFSNTSESFVLNWYRMSPSNQTDKLAAFPEDRINRSQDCRFRVTQLPNGRDFHMSVVRARRNDSGTYLCGAISLSTPVWIKESLRAELRVTERRAEVPTAH	–	–	–	0.0492	0.000109	2.21e+06	–
Seq No.4-RFc (PD-1 variant SEQ ID NO: 4 fused to rabbit IgG Fc) (Fc fusion, Signal peptide 1-20 left out; also called variant 3; not shown: rabbit IgG Fc (RFc) of vector pcDNA3.4-RFc) PGWFLDSPDRPWNPPTFSPALLVVTEGDNATFTCSFSNTSESFVLNWYRMSPSNQTDKLAAFPWMFCFPGQDCRFRVTQLPNGRDFHMSVVRARRNDSGTYLCGAISLSTPVWIKESLRAELRVTERRAEVPTAH	–	–	–	2.94	0.00203	691000	–
Seq No.5-RFc (PD-1 variant SEQ ID NO: 5 fused to rabbit IgG Fc) (Fc fusion, Signal peptide 1-20 left out; also called variant 4; not shown: rabbit IgG Fc (RFc) of vector pcDNA3.4-RFc) PGWFLDSPDRPWNPPTFSPALLVVTEGDNATFTCSFSNTSESFVLNWYRMSPSNQTDKLAAFPEDFRNCTQDCRFRVTQLPNGRDFHMSVVRARRNDSGTYLCGAISLSTPVWIKESLRAELRVTERRAEVPTAH	–	–	–	0.567	0.0003	530000	–
